Where no end group is shown, it is not given here.
B1: biotinylated SVH1C (quadravalent, C-terminal ε-biotinyl-lysine amide) (peptide)
peptide: NPSHPLSGGGGS
chain: KKKK
modifications: not checked

How the values were obtained:
[1] = target: lectin SNA1 from Sambucus nigra (Sambucus nigra) (UniProt Q41358)
[2] = target: lectin MAA from Maackia amurensis (Maackia amurensis) (UniProt P0DKL3); experiment: solid-phase competition; fetuin against 100 pmoles of SVH1C on streptavidin for peroxidase-conjugated MAA
[3] = target: lectin MAA from Maackia amurensis (Maackia amurensis) (UniProt P0DKL3); experiment: solid-phase competition; fetuin against SVH1C for MAA
[4] = target: lectin SNA1 from Sambucus nigra (Sambucus nigra), Q41358; experiment: solid-phase assay, peptide titrated into wells containing bound lectin
lectin SNA1 from Sambucus nigra (Sambucus nigra), Q41358, sequence (Q41358 29-289 limits assumed, chain 1 of 2): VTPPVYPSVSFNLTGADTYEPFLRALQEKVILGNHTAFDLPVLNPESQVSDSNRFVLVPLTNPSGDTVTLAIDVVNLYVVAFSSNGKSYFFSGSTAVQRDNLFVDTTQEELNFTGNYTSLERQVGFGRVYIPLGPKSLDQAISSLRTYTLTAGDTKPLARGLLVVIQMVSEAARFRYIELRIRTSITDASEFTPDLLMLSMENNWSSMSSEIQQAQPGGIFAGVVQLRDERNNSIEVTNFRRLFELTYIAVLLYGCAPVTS
lectin SNA1 from Sambucus nigra (Sambucus nigra), Q41358, sequence (Q41358 309-570 limits assumed, chain 2 of 2): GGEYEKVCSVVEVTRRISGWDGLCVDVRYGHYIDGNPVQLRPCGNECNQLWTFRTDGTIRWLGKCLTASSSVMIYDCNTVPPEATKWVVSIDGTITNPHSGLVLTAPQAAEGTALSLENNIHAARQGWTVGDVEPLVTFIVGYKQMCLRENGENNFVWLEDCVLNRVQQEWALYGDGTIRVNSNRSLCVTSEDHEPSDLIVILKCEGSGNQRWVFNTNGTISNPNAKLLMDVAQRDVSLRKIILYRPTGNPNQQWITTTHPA

[5] = target: T1, lectin MAA from Maackia amurensis (Maackia amurensis), P0DKL3; experiment: as above
T1 chain: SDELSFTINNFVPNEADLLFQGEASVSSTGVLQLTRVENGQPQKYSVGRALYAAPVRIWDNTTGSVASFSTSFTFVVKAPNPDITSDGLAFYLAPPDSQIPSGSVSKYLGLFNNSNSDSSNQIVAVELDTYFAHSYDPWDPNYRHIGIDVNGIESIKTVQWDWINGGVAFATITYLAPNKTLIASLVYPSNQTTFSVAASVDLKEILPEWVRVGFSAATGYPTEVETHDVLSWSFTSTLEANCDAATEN

lectin SNA1 from Sambucus nigra (Sambucus nigra), sequence (Q41358 29-289 limits assumed, chain 1 of 2): as the sequence (Q41358 29-289 limits assumed, chain 1 of 2) above
lectin SNA1 from Sambucus nigra (Sambucus nigra), sequence (Q41358 309-570 limits assumed, chain 2 of 2): as the sequence (Q41358 309-570 limits assumed, chain 2 of 2) above

Molecule	amount of fetuin giving essentially complete inhibition (pmoles of fetuin per well) [1]	percent inhibition at 100 pmoles fetuin per well [1] [%]	amount of fetuin giving essentially complete inhibition (pmoles of fetuin per well) [2]	percent inhibition at 100 pmoles fetuin per well [2] [%]	percent inhibition at a 5-fold molar excess of fetuin over peptide [3] [%]	amount of peptide at saturation [4] [pmol]	amount of peptide at saturation [5] [pmol]
fetuin (from UniProt P12763 19-359)	500	50	500	50	90		
B1						100	100

— patent publication US20150299252A1
